We go through seven molecules from paper PMC9601775 (Protein Science : A Publication of the Protein Society, 2022).

Positions count from the first letter of the chain named. In names and notes the source's numbering stands.

As a reminder, the Kd is a measure of binding affinity in units of concentration. Low values mean higher affinity, high ones lower affinity. For orientation: koff means the first-order rate constant of dissociation. The low end stands for slow dissociation, the high end for fast dissociation. As usually defined, the kon is a measure of how fast the partners come together. A high value points to fast association.

Common to all, as to assay: SPR; Biacore 8K; EGFR extracellular domain immobilised on CM5 chip by amine coupling (~1000 RU); VHHs injected in two-fold serial dilutions at 30 μl/min; 25°C; PBS with 0.005% Tween20
Holding throughout (settings): both partners purified
On the technique in general: Surface plasmon resonance follows binding to a sensor surface in real time, without labels.

Assay [1] concerns the target T1, extracellular domain of epidermal growth factor receptor (EGFR), residues 1–618 (Homo sapiens (; human EGFR in …, UniProt P00533).
T1 construct: Epidermal growth factor receptor (EGFR), extracellular domain, residues 1-618; also called extracellular domain of EGFR; source: Sf9 expression system (baculovirus), purified from the culture supernatant (Ni-NTA, SEC)

In assay [2] the target is T1, extracellular domain of epidermal …. This is another data set of the same source.
Assay [3] has the same target. The source holds these as a separate data set.

B1: 7D12‐Vob Y42F (VHH)
VHH: EVQLVESGGGLVQPGGSLRLSCAASGRTSRSYGMGWFRQAPGKGRELVAGISWRGDSTGYADSVKGRFTISRDNAKNTLYLQMNSLRPEDTAVYYCAFAAGSAWYGTLYEYDYWGQGTLVTVSS
notes: PDB 7XL1) with the stated change; IMGT numbering; source: E. coli BL21(DE3), periplasmic fraction, purified (Ni-NTA, SEC)
Turning to B1, in assay [1], the Kd was 191 nM, the koff was determined as 0.137 s⁻¹ and the kon was 713000 M⁻¹ s⁻¹.

B2: 7D12‐Vob Y42F‐L52F‐F106A (VHH)
VHH: B1 VHH with L47F, F98A
notes: PDB 7XL1) with the stated changes; IMGT numbering; also called triple mutant; source: E. coli BL21(DE3), periplasmic fraction, purified (Ni-NTA, SEC)
In assay [1], B2 came in with a Kd of 38 nM, a koff of 0.0693 s⁻¹ and a kon of 1.82e+06 M⁻¹ s⁻¹.

B3: 7D12‐Vob Y42F‐L52F (VHH)
VHH: B1 VHH with L47F
notes: PDB 7XL1) with the stated changes; IMGT numbering; source: E. coli BL21(DE3), periplasmic fraction, purified (Ni-NTA, SEC)
In the case of B3, in assay [1], the affinity, expressed as Kd, was 110 nM; the koff was 0.0799 s⁻¹; the kon came out at 729000 M⁻¹ s⁻¹.

B4: 7D12‐Vob (VHH)
VHH: B1 VHH with F37Y
notes: CDRs of 7D12 grafted onto the framework regions of Vobarilizumab; PDB 7XL1; also called chimeric VHH; source: E. coli BL21(DE3), periplasmic fraction, purified (Ni-NTA, SEC)
Consider B4, for which, in assay [2], the affinity, expressed as Kd, was 1450 nM; the off-rate (koff) turned out to be 0.247 s⁻¹; the kon was 169000 M⁻¹ s⁻¹.

B5: 7D12‐Vob F106A (VHH)
VHH: B1 VHH with F37Y, F98A
notes: as for B1
As for B5, in assay [1], the Kd came to 482 nM, the dissociation rate constant (koff) came out at 0.152 s⁻¹ and the kon came out at 316000 M⁻¹ s⁻¹.

B6: 7D12‐Vob E1Q‐Y42F‐L52F‐F106A (VHH)
VHH: B1 VHH with E1Q, L47F, F98A
notes: PDB 7XL1) with the stated changes; IMGT numbering; also called quadruple mutant; source: E. coli BL21(DE3), periplasmic fraction, purified (Ni-NTA, SEC)
B6 showed a Kd in assay [3] of 4.7 nM.

B7: 7D12‐Vob L52F (VHH)
VHH: B1 VHH with F37Y, L47F
notes: as for B1
In assay [1], B7 yielded a Kd of 358 nM, a koff of 0.123 s⁻¹ and a kon of 344000 M⁻¹ s⁻¹.
